Measured values reported in PMC9213739, “Substrates and Loaded Iron Ions Relative Position Influence the Catalytic Characteristics of the Metalloenzymes Angelica archangelica Flavone Synthase I and Camellia sinensis Flavonol Synthase” (Frontiers in Pharmacology, 2022).

Substrate: COc1ccc([C@@H]2CC(=O)c3c(O)cc(O)cc3O2)cc1O
Assay: UPLC-MS product formation, Lineweaver-Burk
Assay type: biochemical, Camellia sinensis
Conditions: 4'-O-methyl taxifolin formation (main product), Tris-HCl pH 7.5, 23 °C, 1 h, 5 mM 2-mercaptoethanol, 1 mM NADPH, 'separated protein', purification not described
Description: UPLC-MS product formation, Lineweaver-Burk on CaFLS

B1: CaFLS (Camellia sinensis) (protein)
chain: MEVERVQALSHVTLHELPAKFIRPAHEQPENSKAIEGVTVPVISLSRPHDVVVDALSKACSEWGFFLITDHGVEPSLIGRLKEVGEEFFKLPQKEKESYANDPSSGSFEGYGTKMTKNFDEKVEWIDYYFHVMHPPKKLNLDMWPKNPSSYRGVTEEYNVEILRTTNKLLELLSEGLGLDGKVLNSSLGGDEIEFEMKINMYPPCPQPELALGVEPHTDMSALTLLIPNDVPGLQVWKDGNWVAVNYLPNALFVHVGDQLEVLSNGKYKSVLHRSLVNKERTRMSWAVFVVPPHEAVIGPLPELIDEKNPAKYSTKTYAEYRYRKFNKIPQ
notes: synthetic gene in pET-28a(+) (NcoI/XhoI), expressed in E. coli BL21(DE3); 331 residues; mutants carry fragments of AnFNS I
Km: 55.47 µM | Vmax: 0.0558 µmol/min/mg | kcat: 0.0349 s⁻¹ | kcat/Km: 629 M⁻¹ s⁻¹
